Assay results published in patent US20220226425A1 (RHYTHM PHARMACEUTICALS, published 2022).
Bridges are numbered along the chain shown (N, C = ends). [ ]: non-standard residue; d: D form. Pen = CC(C)(S)[C@H](N)C(=O)O; hCys = N[C@@H](CCS)C(=O)O; Dap = NC[C@H](N)C(=O)O

B1: 001574C, Ac-Arg-(hCys-Thr-D-Phe-Arg-Trp-Pen)-NH2 (peptide)
peptide: Ac-R[hCys]T[dF]RW[Pen]-NH2
modifications: disulfide 2-7
SMILES: CC(=O)N[C@@H](CCCNC(=N)N)C(=O)N[C@H]1CCSSC(C)(C)[C@@H](C(N)=O)NC(=O)[C@H](Cc2c[nH]c3ccccc23)NC(=O)[C@H](CCCNC(=N)N)NC(=O)[C@@H](Cc2ccccc2)NC(=O)[C@H]([C@@H](C)O)NC1=O
B2: 001576C, Ac-Arg-(Glu-Gln-D-Phe-Arg-Trp-Dpr)-NH2 (peptide)
peptide: Ac-REQ[dF]RW[Dap]-NH2
modifications: lactam 2-7
SMILES: CC(=O)N[C@@H](CCCNC(=N)N)C(=O)N[C@H]1CCC(=O)NC[C@@H](C(N)=O)NC(=O)[C@H](Cc2c[nH]c3ccccc23)NC(=O)[C@H](CCCNC(=N)N)NC(=O)[C@@H](Cc2ccccc2)NC(=O)[C@H](CCC(N)=O)NC1=O
B3: 001556C, Ac-Arg-(hCys-Ser-D-Phe-Arg-Trp-Pen)-NH2 (peptide)
peptide: Ac-R[hCys]S[dF]RW[Pen]-NH2
modifications: disulfide 2-7
SMILES: CC(=O)N[C@@H](CCCNC(=N)N)C(=O)N[C@H]1CCSSC(C)(C)[C@@H](C(N)=O)NC(=O)[C@H](Cc2c[nH]c3ccccc23)NC(=O)[C@H](CCCNC(=N)N)NC(=O)[C@@H](Cc2ccccc2)NC(=O)[C@H](CO)NC1=O

What was measured:
Assay in all cases: cell-based or functional assay
melanocortin 3 receptor = melanocortin 3 receptor (human, UniProt P41968 1-323)
melanocortin-4 receptor = melanocortin-4 receptor (human, UniProt P32245 1-332)
melanocortin 5 receptor = melanocortin 5 receptor (human, UniProt P33032 1-325)
melanocortin 1 receptor = melanocortin 1 receptor (human, UniProt Q01726 1-317)
Sequence of melanocortin 1 receptor (Q01726 whole entry): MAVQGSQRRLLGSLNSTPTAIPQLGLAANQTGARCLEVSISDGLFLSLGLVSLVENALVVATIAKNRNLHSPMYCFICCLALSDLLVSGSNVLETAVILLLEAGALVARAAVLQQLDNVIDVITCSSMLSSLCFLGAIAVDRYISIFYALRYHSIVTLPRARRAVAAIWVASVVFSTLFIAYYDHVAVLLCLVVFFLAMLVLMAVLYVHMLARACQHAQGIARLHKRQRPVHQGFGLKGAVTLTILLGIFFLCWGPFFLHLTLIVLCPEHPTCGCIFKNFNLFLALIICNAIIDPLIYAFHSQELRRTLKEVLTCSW

Sequence of melanocortin-4 receptor (P32245 whole entry): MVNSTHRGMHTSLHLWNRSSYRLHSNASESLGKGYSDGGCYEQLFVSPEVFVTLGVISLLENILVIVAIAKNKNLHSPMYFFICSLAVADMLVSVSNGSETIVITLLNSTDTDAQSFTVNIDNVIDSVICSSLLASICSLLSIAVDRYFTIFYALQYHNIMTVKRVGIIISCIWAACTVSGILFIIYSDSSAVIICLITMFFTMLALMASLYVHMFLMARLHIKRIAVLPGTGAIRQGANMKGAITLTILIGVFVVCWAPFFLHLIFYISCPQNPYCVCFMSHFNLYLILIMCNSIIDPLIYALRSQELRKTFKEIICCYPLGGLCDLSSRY
Sequence of melanocortin 5 receptor (P33032 whole entry): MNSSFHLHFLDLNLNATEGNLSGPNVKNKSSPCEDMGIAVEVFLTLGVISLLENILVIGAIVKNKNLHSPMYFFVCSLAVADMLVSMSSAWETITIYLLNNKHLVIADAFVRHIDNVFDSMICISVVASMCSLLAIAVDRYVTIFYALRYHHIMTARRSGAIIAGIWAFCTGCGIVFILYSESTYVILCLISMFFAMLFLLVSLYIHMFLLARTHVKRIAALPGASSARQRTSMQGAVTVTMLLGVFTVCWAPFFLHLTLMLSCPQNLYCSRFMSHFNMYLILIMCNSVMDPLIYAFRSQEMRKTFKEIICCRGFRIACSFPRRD
Sequence of melanocortin 3 receptor (P41968 whole entry): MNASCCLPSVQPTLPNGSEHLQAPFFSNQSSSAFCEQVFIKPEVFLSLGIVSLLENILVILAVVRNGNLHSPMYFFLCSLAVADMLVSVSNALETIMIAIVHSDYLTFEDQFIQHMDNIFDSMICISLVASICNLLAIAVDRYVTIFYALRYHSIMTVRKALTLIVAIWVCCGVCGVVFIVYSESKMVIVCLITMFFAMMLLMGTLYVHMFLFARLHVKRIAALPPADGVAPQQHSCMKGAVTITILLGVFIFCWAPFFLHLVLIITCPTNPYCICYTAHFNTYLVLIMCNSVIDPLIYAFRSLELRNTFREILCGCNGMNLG

Row | Binder | EC-50 (nM), cAMP accumulation (melanocortin 3 receptor) [nM] | Selectivity Ratio MC4R/MC3R (of EC-50 values) (melanocortin 3 receptor) | EC-50 (nM), cAMP accumulation (melanocortin-4 receptor) [nM] | EC-50 (nM), cAMP accumulation (melanocortin 5 receptor) [nM] | EC-50 (nM), cAMP accumulation (melanocortin 1 receptor) [nM]
1 | B1 | > 3000 | > 2710 | 1.11 | 2050 | 516
2 | B2 | 1.16 | 1.75 | 0.66 | 67.3 | 23.6
3 | Ac-R[hCys]Q[dF]RW[Pen]-NH2 (disulfide 2-7) [001555C, Ac-Arg-(hCys-Gln-D-Phe-Arg-Trp-Pen)-NH2] | 0.52 | 2.68 | 0.19 | 124 | 47.5
4 | Ac-R[hCys]N[dF]RW[Pen]-NH2 (disulfide 2-7) [001554C, Ac-Arg-(hCys-Asn-D-Phe-Arg-Trp-Pen)-NH2] | > 3000 | > 1870 | 1.6 | 735 | 235
5 | B3 | > 3000 | > 1620 | 1.86 | 1700 | 229
